Experimental data published in US20140154243A1 (Amgen, published 2014).
Blank lines part the entries; values can stand above or below the binder they belong to.

Assays:
[1] = target: T1, human hepatocyte growth factor (HGF) (human, UniProt P14210 32-728); experiment: cell-based or functional assay
[2] = target: T1, human hepatocyte growth factor (HGF); experiment: neutralization ELISA (left table): inhibition of the binding of soluble Met (2 nM) to plate-coated HGF, detected with biotinylated anti-cMetR antibody and Eu-streptavidin; column head 'IC50 IP (nM)'
Procedure: A neutralization ELISA assay was developed to assess whether the antibodies discussed in Example 6 could interrupt Met-HGF binding. Delphia 96-well plates (Cat#: AAAND-0001, Wallac Inc., Gaithersburg, Md.) were coated with HGF by adding 100 μl of HGF at 6.25 μg/ml per well. The plates were incubated at 37° C. for 1 hour or at 4° C. overnight. The plates were then blocked with 5% BSA (Cat#50-61-00, KPL, Gaithersburg, Md.) in PBS containing 0.1% Tween 20 for 1 hour at room temperature with shaking.
Test samples were prepared by separately mixing soluble Met (2 nM, 0.256 μg/ml) with different concentrations of a particular antibody to HGF being tested. The concentrations tested were: 667 nM, 223 nM, 74.1 nM, 24.7 nM, 8.2 nM, 2.7 nM, 0.91 nM, 0.30 nM, 0.10 nM, and 0.034 nM. A volume of 100 μl of a test sample was added to each well of the plates. The plates were then incubated at 4° C. overnight and then washed 4 times with PBS containing 0.1% Tween 20. Next, 100 μl per well of Biotinylated anti-cMetR antibody (Cat#: BAF358, R&D Systems Inc., Minneapolis, Minn.) at 2 μg/ml, was added. […] The plates were then incubated for 2 hours with shaking, and were washed 4 times with PBS containing 0.1% Tween 20. Eu-streptavidin (1:1000 dilution in Assay buffer) (Cat#1244-360, Wallac Inc., Gaithersburg, Md.) was added and the plates were shaken at room temperature for 1 hour. The plates were then washed 4 times with PBS containing 0.1% Tween 20. Next, 100 μl of enhancement buffer (Wallac Inc., Cat#: 1244-105, Gaithersburg, Md.) was added. After at least for 5 minutes, the plates were read using Europium method on Victor 2 (1420 Multilabel Counter, Wallac Inc., Gaithersburg, Md.).
Percent inhibition of Met binding to HGF (i.e. neutralization) was calculated and IC₅₀ values were determined using the 4 parameter fit equation Excelfit, Version 2.0.6, (Microsoft Inc, Seattle, Wash.). In the presence of the antibodies to HGF discussed in Examples 6, Met binding to HGF was neutralized.

[3] = target: T1, human hepatocyte growth factor (HGF); experiment: BIAcore 3000, kinetic method: antibody captured on immobilized Protein G, human HGF (0-100 nM) injected
Source text: The running buffer for those analyses was PBS with 0.005% P20 surfactant (BIAcore, Inc. Piscataway, N.J.). Recombinant Protein G (Pierce, Rockford, Ill.) was immobilized to a research grade CM5 sensor chip (Biacore, Inc. Piscataway, N.J.) via primary amine groups using the Amine Coupling Kit (Biacore, Inc. Piscataway, N.J.), according to the manufacturer's instructions.
In six separate samples, about 200 resonance units (RU) of each of the six antibodies to HGF was separately attached to immobilized Protein G following the manufacturer's instructions. Samples comprising various concentrations (0-100 nM) of human HGF were injected over the bound antibody surface at a flow rate of 50 μl/min for 3 minutes. Antibody binding kinetic parameters including kₐ (association rate constant), kd (dissociation rate constant), and KD (dissociation equilibrium constant) were determined using the BIA evaluation 3.1 computer program (BIAcore, Inc. Piscataway, N.J.). Lower dissociation equilibrium constants indicate greater affinity of the antibody for HGF.

[4] = target: human HGF-avidin fusion protein with the point mutation hHGFG555E (chicken; human, UniProt P02701 25-152; P14210 32-728, limits assumed); experiment: avidin fusion protein captured on biotin-coated beads, PE anti-human F(ab')2, FACS
Procedure: (§1) These constructs were expressed and subjected to binding analysis as described in Examples 8C and 8D. […] The resulting bead-protein complexes were labeled by adding FITC labeled anti-avidin antibody (Vector Lab, Burlingame, Calif., Cat. # SP-2040). The presence of antibodies to HGF was determined by adding phycoerythrin (PE) labeled goat anti-human F(ab′)2 antibody (Southern Biotech Associates, Inc, Birmingham, Ala., Cat #2043-09). Those samples were then subjected to Fluorescence Activated Cell Sorter (FACS) analysis. Bead complexes labeled by FITC (which indicated the presence of avidin) and/or PE (which indicated the presence of antibody to HGF) were detected on a Becton Dickinson Bioscience FACScan (BD, Franklin Lakes, N.J.). In some cases, after expression normalization using FITC, single-color FACS analysis was performed following antibody binding by the PE label. This method increased the sensitivity of the assay and aided the measurement of binding with constructs that were not expressed at very high levels.

[5] = target: human HGF-avidin fusion protein with the point mutation hHGFN601S (chicken; human, UniProt P02701 25-152; P14210 32-728, limits assumed); experiment: as above
human HGF-avidin fusion protein with the point mutation hHGFN601S, sequence (P02701 other isoform, or with tags, fused parts or gaps limits assumed): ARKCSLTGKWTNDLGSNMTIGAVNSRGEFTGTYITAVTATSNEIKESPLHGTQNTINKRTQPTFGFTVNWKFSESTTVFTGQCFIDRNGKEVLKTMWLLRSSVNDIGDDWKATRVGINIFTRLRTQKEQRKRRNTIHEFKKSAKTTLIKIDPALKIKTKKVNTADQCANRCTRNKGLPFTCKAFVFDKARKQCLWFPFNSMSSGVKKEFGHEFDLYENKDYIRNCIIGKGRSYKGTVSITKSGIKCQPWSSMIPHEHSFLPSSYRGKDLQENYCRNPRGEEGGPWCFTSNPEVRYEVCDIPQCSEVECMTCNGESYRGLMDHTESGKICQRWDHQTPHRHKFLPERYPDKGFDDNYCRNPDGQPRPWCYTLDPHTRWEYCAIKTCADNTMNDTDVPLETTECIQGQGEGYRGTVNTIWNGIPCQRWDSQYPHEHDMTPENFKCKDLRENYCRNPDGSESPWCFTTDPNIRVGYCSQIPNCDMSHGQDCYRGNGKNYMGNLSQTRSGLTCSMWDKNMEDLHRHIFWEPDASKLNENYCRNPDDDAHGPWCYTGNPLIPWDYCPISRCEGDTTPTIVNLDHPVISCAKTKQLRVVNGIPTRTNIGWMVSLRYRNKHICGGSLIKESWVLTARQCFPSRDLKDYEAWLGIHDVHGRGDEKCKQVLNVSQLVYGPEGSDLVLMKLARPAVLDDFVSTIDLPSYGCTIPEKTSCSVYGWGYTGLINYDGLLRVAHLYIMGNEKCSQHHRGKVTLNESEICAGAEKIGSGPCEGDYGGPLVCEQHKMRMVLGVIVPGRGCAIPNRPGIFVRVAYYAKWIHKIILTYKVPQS
Procedure: as §1

[6] = target: human HGF-avidin fusion protein with the point mutation hHGFD592N (chicken; human, UniProt P02701 25-152; P14210 32-728, limits assumed); experiment: as above
human HGF-avidin fusion protein with the point mutation hHGFD592N, sequence (P02701 other isoform, or with tags, fused parts or gaps limits assumed): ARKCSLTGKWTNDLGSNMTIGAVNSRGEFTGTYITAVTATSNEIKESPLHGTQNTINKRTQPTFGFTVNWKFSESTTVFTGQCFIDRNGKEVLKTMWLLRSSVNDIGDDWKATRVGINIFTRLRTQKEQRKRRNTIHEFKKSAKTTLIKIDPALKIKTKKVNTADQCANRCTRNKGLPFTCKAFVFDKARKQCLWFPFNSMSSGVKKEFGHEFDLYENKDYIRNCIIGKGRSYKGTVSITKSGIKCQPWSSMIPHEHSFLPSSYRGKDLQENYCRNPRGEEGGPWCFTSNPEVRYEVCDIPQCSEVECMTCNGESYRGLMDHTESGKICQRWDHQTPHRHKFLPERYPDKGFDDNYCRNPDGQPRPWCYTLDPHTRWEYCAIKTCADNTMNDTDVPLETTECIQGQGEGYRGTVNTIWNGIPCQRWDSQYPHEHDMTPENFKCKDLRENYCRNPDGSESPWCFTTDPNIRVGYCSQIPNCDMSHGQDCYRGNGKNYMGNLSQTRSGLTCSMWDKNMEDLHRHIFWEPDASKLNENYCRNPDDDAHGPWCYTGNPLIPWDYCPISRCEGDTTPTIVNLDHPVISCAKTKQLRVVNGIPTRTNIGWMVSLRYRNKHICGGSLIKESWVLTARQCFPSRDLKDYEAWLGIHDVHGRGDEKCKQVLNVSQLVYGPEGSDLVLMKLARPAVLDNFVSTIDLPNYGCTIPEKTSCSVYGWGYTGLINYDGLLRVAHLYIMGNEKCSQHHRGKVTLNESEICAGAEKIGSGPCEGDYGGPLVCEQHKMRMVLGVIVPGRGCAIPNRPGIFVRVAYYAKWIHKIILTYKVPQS
Procedure: as §1

[7] = target: human HGF-avidin fusion protein with the point mutation hHGFC561R (chicken; human, UniProt P02701 25-152; P14210 32-728, limits assumed); experiment: as above
human HGF-avidin fusion protein with the point mutation hHGFC561R, sequence (P02701 other isoform, or with tags, fused parts or gaps limits assumed): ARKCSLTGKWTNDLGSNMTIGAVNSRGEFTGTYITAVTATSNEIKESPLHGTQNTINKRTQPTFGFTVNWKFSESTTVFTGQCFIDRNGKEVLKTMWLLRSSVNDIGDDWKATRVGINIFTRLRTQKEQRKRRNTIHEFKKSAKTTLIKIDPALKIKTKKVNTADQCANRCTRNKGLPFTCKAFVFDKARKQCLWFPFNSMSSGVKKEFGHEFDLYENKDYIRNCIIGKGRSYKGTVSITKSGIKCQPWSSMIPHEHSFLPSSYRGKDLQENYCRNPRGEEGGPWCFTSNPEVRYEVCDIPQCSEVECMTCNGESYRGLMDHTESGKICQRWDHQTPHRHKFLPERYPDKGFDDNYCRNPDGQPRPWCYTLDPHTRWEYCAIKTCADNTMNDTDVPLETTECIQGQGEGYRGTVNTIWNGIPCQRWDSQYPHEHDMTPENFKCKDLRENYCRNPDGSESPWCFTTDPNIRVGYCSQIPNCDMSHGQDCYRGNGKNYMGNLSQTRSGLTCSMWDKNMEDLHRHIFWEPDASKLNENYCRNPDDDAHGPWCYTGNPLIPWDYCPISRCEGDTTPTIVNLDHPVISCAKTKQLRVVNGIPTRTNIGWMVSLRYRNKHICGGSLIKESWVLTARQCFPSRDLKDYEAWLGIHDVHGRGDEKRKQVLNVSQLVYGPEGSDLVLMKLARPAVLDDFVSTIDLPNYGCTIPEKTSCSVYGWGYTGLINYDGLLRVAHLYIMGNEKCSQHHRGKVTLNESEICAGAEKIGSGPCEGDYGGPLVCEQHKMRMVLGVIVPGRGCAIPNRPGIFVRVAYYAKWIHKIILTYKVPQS
Procedure: as §1

[8] = target: T2, human HGF-avidin fusion protein with a two amino acid insertion (mouse amino acids 540N and 541K) (chicken; human, UniProt P02701 25-152; P14210 32-728, limits assumed); experiment: as above
T2 construct: also called hHGF DK insertion
T2 sequence (P02701 other isoform, or with tags, fused parts or gaps limits assumed): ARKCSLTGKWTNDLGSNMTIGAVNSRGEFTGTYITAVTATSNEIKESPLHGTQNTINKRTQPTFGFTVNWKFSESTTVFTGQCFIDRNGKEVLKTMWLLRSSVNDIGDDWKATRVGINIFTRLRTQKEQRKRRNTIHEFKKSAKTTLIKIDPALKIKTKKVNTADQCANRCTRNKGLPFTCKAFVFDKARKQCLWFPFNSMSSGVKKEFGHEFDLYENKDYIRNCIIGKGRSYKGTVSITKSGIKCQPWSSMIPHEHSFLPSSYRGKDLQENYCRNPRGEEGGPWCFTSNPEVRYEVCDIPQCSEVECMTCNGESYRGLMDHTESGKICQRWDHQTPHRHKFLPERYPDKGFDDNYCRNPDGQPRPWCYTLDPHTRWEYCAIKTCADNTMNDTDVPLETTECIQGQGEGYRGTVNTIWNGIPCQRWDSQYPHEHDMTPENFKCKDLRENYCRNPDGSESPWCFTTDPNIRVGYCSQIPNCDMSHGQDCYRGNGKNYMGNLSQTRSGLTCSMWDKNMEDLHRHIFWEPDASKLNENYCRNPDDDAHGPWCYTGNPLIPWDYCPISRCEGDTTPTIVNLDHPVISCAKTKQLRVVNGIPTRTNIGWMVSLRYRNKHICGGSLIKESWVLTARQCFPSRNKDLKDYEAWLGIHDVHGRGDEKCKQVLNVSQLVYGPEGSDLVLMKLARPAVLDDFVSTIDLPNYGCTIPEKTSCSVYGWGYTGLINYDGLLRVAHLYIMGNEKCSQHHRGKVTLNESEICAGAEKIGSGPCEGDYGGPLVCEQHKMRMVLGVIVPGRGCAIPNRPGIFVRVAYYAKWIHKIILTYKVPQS
Procedure: as §1

[9] = target: human HGF-avidin fusion protein with the point mutation hHGFR647Q (chicken; human, UniProt P02701 25-152; P14210 32-728, limits assumed); experiment: as above
human HGF-avidin fusion protein with the point mutation hHGFR647Q, sequence (P02701 other isoform, or with tags, fused parts or gaps limits assumed): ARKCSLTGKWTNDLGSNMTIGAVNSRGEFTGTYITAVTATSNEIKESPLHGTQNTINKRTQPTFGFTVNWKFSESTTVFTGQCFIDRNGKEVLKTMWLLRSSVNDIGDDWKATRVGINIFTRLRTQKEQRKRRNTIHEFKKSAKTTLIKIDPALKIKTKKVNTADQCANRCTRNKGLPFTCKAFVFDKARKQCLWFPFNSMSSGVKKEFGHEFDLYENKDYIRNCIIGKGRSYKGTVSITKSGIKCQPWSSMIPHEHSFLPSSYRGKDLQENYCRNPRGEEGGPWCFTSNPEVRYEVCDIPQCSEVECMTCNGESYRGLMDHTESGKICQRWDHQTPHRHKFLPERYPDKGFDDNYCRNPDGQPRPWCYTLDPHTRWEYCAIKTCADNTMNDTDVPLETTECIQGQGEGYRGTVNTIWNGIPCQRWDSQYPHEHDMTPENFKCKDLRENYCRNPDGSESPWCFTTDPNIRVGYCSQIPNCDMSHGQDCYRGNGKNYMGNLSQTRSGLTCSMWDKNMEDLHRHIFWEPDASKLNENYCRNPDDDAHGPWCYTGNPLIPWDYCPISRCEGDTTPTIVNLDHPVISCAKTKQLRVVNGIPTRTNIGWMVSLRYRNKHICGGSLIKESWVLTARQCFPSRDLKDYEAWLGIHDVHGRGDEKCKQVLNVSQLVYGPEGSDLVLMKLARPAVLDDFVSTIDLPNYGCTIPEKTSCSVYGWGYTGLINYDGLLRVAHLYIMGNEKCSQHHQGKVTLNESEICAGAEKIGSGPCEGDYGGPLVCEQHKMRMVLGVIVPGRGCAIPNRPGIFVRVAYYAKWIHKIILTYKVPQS
Procedure: as §1

T1 sequence (P14210 32-728 limits assumed): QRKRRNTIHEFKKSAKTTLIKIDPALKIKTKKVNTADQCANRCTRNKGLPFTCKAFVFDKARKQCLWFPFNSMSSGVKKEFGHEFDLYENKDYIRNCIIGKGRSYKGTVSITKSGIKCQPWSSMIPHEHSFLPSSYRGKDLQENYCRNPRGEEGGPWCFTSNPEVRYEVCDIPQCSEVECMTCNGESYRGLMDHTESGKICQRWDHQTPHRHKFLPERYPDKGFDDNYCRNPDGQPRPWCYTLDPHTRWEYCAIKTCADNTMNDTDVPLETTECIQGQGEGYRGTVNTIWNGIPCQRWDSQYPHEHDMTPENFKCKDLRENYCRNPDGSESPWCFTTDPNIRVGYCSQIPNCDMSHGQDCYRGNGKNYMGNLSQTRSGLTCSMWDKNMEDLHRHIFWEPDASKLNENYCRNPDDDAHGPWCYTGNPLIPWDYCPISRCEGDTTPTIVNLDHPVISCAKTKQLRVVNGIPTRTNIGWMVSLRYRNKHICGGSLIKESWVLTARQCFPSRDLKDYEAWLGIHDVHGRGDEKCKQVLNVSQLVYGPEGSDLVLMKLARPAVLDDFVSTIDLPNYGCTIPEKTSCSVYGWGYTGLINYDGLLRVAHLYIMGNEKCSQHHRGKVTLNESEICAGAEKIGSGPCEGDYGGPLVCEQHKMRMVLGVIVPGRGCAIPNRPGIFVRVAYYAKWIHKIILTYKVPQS

IC50 [2]: 2.1 nM
Kd [3]: ~0.22 nM
koff [3]: 2.8e-05 s⁻¹
kon [3]: 130000 M⁻¹ s⁻¹
binding result [4]: no binding
binding result [5]: binds
binding result [6]: binds
binding result [7]: no binding
binding result [8]: no binding
binding result [9]: binds
B1: antibody 2.12.1 (antibody, human IgG2, kappa, V domains shown)
VH: QVQLQESGPGLVKPSETLSLTCTVSGGSISIYYWSWIRQPPGKGLEWIGYVYYSGSTNYNPSLKSRVTISVDTSKNQFSLKLNSVTAADTAVYYCARGGYDFWSGYFDYWGQGTLVTVSS
VL: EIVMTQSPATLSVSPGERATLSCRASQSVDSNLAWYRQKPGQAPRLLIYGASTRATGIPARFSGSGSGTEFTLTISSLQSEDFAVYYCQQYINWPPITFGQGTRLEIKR
IC50, inhibition of growth/survival of U-87 MG cells [1]: < 100 nM

IC50 [2]: 5.1 nM
Kd [3]: ~0.099 nM
koff [3]: 2.7e-05 s⁻¹
kon [3]: 270000 M⁻¹ s⁻¹
binding result [4]: binds
binding result [5]: binds
binding result [6]: binds
binding result [7]: no binding
binding result [8]: no binding
binding result [9]: binds
B2: antibody 2.4.4 (antibody, human IgG2, kappa, V domains shown)
VH: QVQLKESGPGLVKPSQTLSLTCTVSGGSISSGVYYWSWIRQHPGKGLEWIGYFYYSGNTYHNPSLKSRVTISVDTSKNQFSLKLSSVTAADTAVYYCARDRSGYDHPDAFDIWGQGTMVTVSS
VL: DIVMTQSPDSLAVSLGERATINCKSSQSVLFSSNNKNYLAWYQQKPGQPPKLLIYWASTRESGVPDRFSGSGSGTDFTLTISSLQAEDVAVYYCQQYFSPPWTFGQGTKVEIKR
notes: also called FITC-labeled antibody 2.4.4
IC50, inhibition of growth/survival of U-87 MG cells [1]: < 100 nM
